As a reminder, the Kd is the free concentration of one partner at which half of the binding sites on the other are occupied at equilibrium, for simple one-to-one binding. A lower Kd goes with higher affinity.

Substitutions are numbered along the chain they refer to. Names and notes keep the numbering of the source. Square brackets hold non-standard residues; d marks the D form. Ends that are not written are not given here. pY = N[C@@H](Cc1ccc(OP(=O)(O)O)cc1)C(=O)O

Assay [1] has as its target T1, GST-Zap-70(1-103) (human, UniProt P43403 1-103).
T1 construct: range 1-103; also called Zap-70 N-terminal SH2 domain; not shown: glutathione S-transferase (GST) from pGEX-2T
T1 sequence (looked up): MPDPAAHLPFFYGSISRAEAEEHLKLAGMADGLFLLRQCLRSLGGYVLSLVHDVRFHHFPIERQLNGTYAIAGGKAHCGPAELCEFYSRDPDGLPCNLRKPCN
As to the kind of experiment: direct binding assay. The method, then: (§1) The regions involved in phosphotyrosine binding are widely separated and in opposite orientation (Hof et al. (1998) Cell 92:441-450).
(§2) For direct binding assays, model peptides (1 mg) were dissolved in 1 ml buffer containing 20 mM Tris (pH 7.9), 500 mM NaCl, and 6 M urea. To this, 50 ul packed His-Bind® Resin (Novagen, Madison, Wis.) was added and the mixture was rotated for 1 hour at room temperature. Immobilized peptides were washed 5× in above buffer without urea, and resuspended in 500 μl buffer containing 20 mM PIPES pH 6.8, 50 mM NaCl, 3 mM MgCl₂, 150 mM sucrose, 50 mM NaF, 40 mM Na₄P₂O₇*10H₂O (buffer A) supplemented with 0.1% TritonX-100 and 3 mM MgCl₂. Purified GST-fusion proteins were added to 0.5 ml buffer A supplemented with 0.1% TritonX-100 and 3 mM MgCl₂. Five μl of total packed resin loaded with various integrin cytoplasmic domain model proteins was added to the GST-fusion protein. The mixture was incubated for 40 minutes at room temperature with continuous rotation. The beads were then washed five times in buffer A with 0.1% TritonX-100 and 3 mM MgCl₂. Bound proteins were eluted by boiling in reducing sample buffer, fractionated by SDS PAGE, and immuno-blotted.

The target in assay [2] is T2, GST-Zap-70(163-254) (human, UniProt P43403 163-254).
T2 construct: also called Zap-70 C-terminal SH2 domain; not shown: glutathione S-transferase (GST) from pGEX-2T
T2 sequence (looked up): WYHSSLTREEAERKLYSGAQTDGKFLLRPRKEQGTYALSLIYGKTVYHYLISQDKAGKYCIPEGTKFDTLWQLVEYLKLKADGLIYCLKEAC
As to the kind of experiment: direct binding assay. The protocol:
as §1, §2

Assay [3] has as its target T3, tandem SH2 domains of SHP-2 (UniProt Q06124 1-220, limits assumed).
T3 construct: domain: tandem SH2 domains
T3 sequence (looked up): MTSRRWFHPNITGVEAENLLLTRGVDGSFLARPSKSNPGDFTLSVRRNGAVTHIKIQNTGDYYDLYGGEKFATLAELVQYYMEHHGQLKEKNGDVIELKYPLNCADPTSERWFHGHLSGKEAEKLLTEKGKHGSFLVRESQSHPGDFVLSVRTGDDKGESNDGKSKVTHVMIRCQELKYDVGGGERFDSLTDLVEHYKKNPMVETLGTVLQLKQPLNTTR
As to the kind of experiment: direct binding assay. The protocol:
as §1, §2

For assay [4], the target named is T4, GST-Syk(163-270) (UniProt P43405 163-270).
T4 construct: also called C-terminal SH2 domain of Syk; not shown: glutathione S-transferase (GST) fusion partner
The assay can be described thus: direct binding assay. The protocol:
as §1, §2

In assay [5] the target is Syk(6-370) cleaved from GST-Syk(6-370) by thrombin (UniProt P43405 6-370). The assay can be described thus: surface plasmon resonance (BIAcore 3000). The protocol:
However integrins are far more abundant than ITAM containing receptor complexes on most cells. For example, Jurkat T cells express ˜80,000 copies of α4β1 (Chen et al. (1999) J Biol Chem 274:13167-13175) and only ˜-12,000 copies of the TCR (Graber et al. (1991) J Immunol 146:2935-2943) on their cell surface.
Experimental procedures, integrin cytoplasmic domain modifications, and data analysis was performed in accordance with procedures described by Yan et al. ((2001) J Biol Chem 276:28164-28170).
On the technique in general: Surface plasmon resonance follows binding to a sensor surface in real time, without labels.

In assay [6] the target is T5, GST-Zap-70(1-337) (human, UniProt P43403 1-337).
T5 construct: range 1-337; also called tandem SH2 domains of Zap-70; not shown: glutathione S-transferase (GST) from pGEX-2T
T5 sequence (looked up): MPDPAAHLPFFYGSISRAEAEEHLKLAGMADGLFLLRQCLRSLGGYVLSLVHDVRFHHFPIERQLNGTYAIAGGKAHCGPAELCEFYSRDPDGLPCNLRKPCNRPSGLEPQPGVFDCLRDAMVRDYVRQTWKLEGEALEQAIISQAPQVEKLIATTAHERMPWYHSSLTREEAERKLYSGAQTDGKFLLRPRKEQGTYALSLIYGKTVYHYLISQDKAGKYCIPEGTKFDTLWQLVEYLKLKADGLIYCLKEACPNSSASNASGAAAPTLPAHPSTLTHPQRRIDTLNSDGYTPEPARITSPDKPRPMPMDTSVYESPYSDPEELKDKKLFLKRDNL
As to the kind of experiment: affinity chromatography / surface plasmon resonance.

Assay [7] deals with T6, Zap-70(1-162) (human, UniProt P43403 1-162).
T6 construct: range 1-162; also called N-terminal SH2 domain of Zap-70 with its intact IA domain
The assay can be described thus: binding of Zap-70 truncation mutants to the β3 tail. The method, then:
as §2

In assay [8] the target is T7, Zap-70(1-132) (human, UniProt P43403 1-132).
T7 construct: range 1-132
T7 sequence (looked up): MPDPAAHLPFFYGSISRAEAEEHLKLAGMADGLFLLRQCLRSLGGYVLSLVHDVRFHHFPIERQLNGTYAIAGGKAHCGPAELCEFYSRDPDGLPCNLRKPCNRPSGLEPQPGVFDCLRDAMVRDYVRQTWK
The assay is described as above. The method, then: as §2

In assay [9] the target is T8, GST fusion of the interdomain A of Syk (UniProt P43405 108-167).
T8 construct: domain: interdomain A; also called Syk interdomain A GST-fusion protein; not shown: glutathione S-transferase (GST) fusion partner
As to the kind of experiment: direct binding assay with GST fusion of Syk interdomain A. The protocol:
as §1, §2

For assay [10], the target named is GST-Syk(6-370) (UniProt P43405 6-370). As to the kind of experiment: direct binding of GST fusion protein to tail model protein beads, immunoblot. The method, then: (§3) Following incubation, beads were washed and bound protein was analyzed by immunoblotting.
as §2
For orientation: Immunoblotting shows a protein as a band on a membrane.

Assay [11] deals with T5, GST-Zap-70(1-337). Described as above. The protocol: as §3, §2
Assay [12] has as its target T9, Syk protein tyrosine kinase (wild type) (UniProt P43405 1-635).
T9 construct: the printed residue numbers (K402, R195, R42, Tyr348) fit it; also called wild-type Syk; Syk kinase
The assay can be described thus: affinity chromatography of cell lysates on tail model protein beads, immunoblot.
Text: (§4) The model protein mimics are designed with an N-terminal heptad repeat sequence joined to the integrin cytoplasmic domains. The repeats form a coiled-coil homodimer that dimerizes the integrin tails (Pfaff et al. (1998) J Biol Chem 273:6104-6109). These protein mimics are also describied in U.S. patent application Ser. No. 90/320,907, filed May 27, 1999 and U.S. patent application Ser. No. 90/323,447, filed Jun. 1, 1999, the teachings of which are herein incorporated by reference in their entirety.
as §3

The target in assay [13] is T10, Zap-70 (human, UniProt P43403 1-619).
T10 construct: also called Syk paralog
T10 sequence (looked up): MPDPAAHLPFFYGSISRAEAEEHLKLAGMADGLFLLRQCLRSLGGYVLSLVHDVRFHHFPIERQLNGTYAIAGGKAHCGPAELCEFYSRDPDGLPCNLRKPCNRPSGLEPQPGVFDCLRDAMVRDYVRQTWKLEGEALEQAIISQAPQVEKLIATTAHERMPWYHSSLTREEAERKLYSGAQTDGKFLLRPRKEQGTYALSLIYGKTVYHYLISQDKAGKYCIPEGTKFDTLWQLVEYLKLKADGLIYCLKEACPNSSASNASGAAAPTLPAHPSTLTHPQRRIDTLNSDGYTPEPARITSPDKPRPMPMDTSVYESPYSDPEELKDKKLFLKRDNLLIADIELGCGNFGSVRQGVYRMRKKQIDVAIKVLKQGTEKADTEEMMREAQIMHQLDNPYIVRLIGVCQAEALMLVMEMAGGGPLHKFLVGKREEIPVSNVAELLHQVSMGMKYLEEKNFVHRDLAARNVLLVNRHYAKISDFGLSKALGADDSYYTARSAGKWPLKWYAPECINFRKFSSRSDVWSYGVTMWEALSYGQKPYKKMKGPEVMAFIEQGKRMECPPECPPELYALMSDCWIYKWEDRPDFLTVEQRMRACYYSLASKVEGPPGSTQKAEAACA
The assay is described as above.
Text: as §4, §3

Assay [14] addresses T9, Syk protein tyrosine kinase (wild type). As to the kind of experiment: binding to β3 tail deletion mutant in vitro. The protocol:
as §2

Assay [15] has the same target. The assay can be described thus: cell-based or functional assay.

B1: integrin β3 cytoplasmic tail model protein (other, UniProt P05106 742-788, looked up, not shown: a dimerising Fc or GST)
chain: KLLITIHDRKEFAKFEEERARAKWDTANNPLYKEATSTFTNITYRGT
modifications: also: coiled-coil homodimer
notes: domain: cytoplasmic domain; Coiled-coil homodimer; also called β3 tail; β3 tail model protein
In the case of B1, the binding result is “binds” in assay [1]; “no binding” in assay [2]; “no binding” in assay [3]; “no binding” in assay [4]; “binds” in assay [6]; “binds” in assay [7]. In addition, the values for the binding result in assay [8] and in assay [9] were “binds” and “no binding”, respectively. Binding in assay [5] was characterised by a dissociation constant (Kd) of 24 nM.

B2: integrin β3(Y747A) cytoplasmic tail model protein (other, UniProt P05106 742-788, looked up, not shown: small tags and cut ends)
chain: B1 chain with Y32A
modifications: not fully specified
notes: domain: cytoplasmic domain; also called β3(Y747A) tail; point mutant of the β3 tail (Y747A)
Consider B2, for which the binding result in [10] is given as “no binding (tested: 5 nM)”; in assay [11], “no binding (tested: 5 nM)”; in assay [12], “no binding”; in [13], “no binding”.
In the case of KLLITIHDRKEFAKFEEERARAKWDTANNPLYKEAT (other, UniProt P05106 742-777, looked up, not shown: small tags and cut ends, not fully specified, domain: cytoplasmic domain) [β3(752X) cytoplasmic tail model protein], the binding result in assay [14] is given as “no binding”.

B3: β3(759X) cytoplasmic tail model protein (other, UniProt P05106 742-784, looked up, not shown: small tags and cut ends)
chain: KLLITIHDRKEFAKFEEERARAKWDTANNPLYKEATSTFTNIT
modifications: not fully specified
notes: domain: cytoplasmic domain; C-terminal truncation
On to B3, for which the binding result in [14] is reported as “no binding”.
With DGV[pY]TGLSTRNQET[pY]ETLKTCR [dually-phosphorylated FcεRIγ chain ITAM peptide], the “activation of Syk kinase in vitro (EC50)” value in assay [15] was 1000 to 2000 nM.
Take KLLMIIHDRREFAKFEKEKMNAKWDTGENPIYKSAVTTVVNPKYEGK (other, UniProt P05556 752-798, looked up, not shown: small tags and cut ends, not fully specified, domain: cytoplasmic domain) [β1A integrin cytoplasmic domain model protein]: the binding result in assay [6] is “binds”.
In assay [5], KLLIHLSDLREYRRFEKEKLKSQWNNDNPLFKSATTTVMNPKFAES (other, UniProt P05107 724-769, looked up, not shown: small tags and cut ends, not fully specified, domain: cytoplasmic domain) [β2 integrin cytoplasmic domain model protein] gave a Kd of 36 nM. For the same molecule, the binding result in [6] is “binds”.

The values are drawn from US20030113828A1 (published 2003).
